Source: paper PMC4843017 (2016)
Where two headings read alike, the source gives them in different places. Blank lines part the entries; values can stand above or below the binder they belong to.

Legend:
[1] = biological target: T1, taxol-stabilized microtubules (α-/β-tubulin) (bovine, UniProt P81947 1-451; Q6B856 1-445)
[2] = biological target: T1, taxol-stabilized microtubules …; remark: listed apart in the source

T1 sequence (P81947 whole entry, chain 1 of 2): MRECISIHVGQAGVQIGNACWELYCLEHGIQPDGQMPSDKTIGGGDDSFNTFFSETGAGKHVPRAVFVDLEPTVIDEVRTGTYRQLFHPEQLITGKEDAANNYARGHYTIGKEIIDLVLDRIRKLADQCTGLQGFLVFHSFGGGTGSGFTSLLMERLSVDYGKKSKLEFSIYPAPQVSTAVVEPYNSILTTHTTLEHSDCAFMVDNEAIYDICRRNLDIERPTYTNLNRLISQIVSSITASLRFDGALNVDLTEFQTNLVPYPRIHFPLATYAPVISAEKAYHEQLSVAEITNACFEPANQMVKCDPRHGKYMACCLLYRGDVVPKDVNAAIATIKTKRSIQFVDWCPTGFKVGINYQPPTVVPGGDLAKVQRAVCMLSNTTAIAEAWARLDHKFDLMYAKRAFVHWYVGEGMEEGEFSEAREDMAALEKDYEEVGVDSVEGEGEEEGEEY
T1 sequence (Q6B856 whole entry, chain 2 of 2): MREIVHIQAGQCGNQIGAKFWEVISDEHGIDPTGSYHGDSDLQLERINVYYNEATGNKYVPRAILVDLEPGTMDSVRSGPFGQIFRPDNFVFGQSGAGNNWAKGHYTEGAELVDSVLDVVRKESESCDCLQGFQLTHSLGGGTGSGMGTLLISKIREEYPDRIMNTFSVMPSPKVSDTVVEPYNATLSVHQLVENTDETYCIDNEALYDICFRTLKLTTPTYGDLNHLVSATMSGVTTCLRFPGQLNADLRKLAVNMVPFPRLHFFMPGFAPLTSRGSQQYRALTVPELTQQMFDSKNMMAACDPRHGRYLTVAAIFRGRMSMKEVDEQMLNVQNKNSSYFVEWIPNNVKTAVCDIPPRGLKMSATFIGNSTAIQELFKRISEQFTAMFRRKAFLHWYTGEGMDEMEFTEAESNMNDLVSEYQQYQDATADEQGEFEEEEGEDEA

Kd [1]: 1.1 µM
B1: SKAP^103–225 (domain or fragment)
chain: TQTRATSKSLLPVRSKEVDVSKQLHSGGPENDVTKITKLRRENGQMKATDTATRRNVRKGYKPLSKQKSEEELKDKNQLLEAVNKQLHQKLTETQGELKDLTQKVELLEKFRDNCLAILESKG

Kd [2]: 1.62 µM
B2: SKAP^159–316 (expressed alone in E. coli) (domain or fragment)
chain: VRKGYKPLSKQKSEEELKDKNQLLEAVNKQLHQKLTETQGELKDLTQKVELLEKFRDNCLAILESKGLDPALGSETLASRQESTTDHMDSMLLLETLQEELKLFNETAKKQMEELQALKVKLEMKEERVRFLEQQTLCNNQVNDLTTALKEMEQLLEM
